Target: the molecule itself
Test: cryo-EM structure

B1: Rsph16 (natural protein, mouse, UniProt Q80Y75 1-316, looked up)
chain: MGLDYYAVLQVTRNSEDAQIKKAYRKLALKNHPLKSSEPGAPEIFKQIAEAYDVLSDPVKRGIYDKFGEEGLKGGIPLEFGSQTPWTTGYVFHGNPDKVFHEFFGGDNPFSEFFDAEGNDIDLNFGGLWGRGVQKQDPPIERDLYLSLEDLFFGCTKKIKISRRVLNEDRYSSTIKDKILTIDVRPGWRQGTRITFEKEGDQGPNIIPADIIFIVKEKLHPRFRREHDNLFFVYPIPLGKALTCCTVEVKTLDDRLLNIPINDIVHPKYFKIVPGEGMPLPENPSKKGDLFIFFDIQFPTRLTPQKKQMLRQALLT
stoichiometry N: 2

— doi:10.1101/2023.06.02.543457 (bioRxiv, 2023)
